Laboratory results taken from IntAct's records for PubMed 30283133.

B1: D-alanyl carrier protein (Streptococcus thermophilus (strain ATCC BAA-250 / LMG 18311)), Q5M4V3 (parent)
chain: MDVKAEVIEIIDELFMEDVSDMMDEDLFDAGVLDSMGTVELIVELESRFDIRVPVSEFGRDDWNTANKIVEGVTELRNA
partner: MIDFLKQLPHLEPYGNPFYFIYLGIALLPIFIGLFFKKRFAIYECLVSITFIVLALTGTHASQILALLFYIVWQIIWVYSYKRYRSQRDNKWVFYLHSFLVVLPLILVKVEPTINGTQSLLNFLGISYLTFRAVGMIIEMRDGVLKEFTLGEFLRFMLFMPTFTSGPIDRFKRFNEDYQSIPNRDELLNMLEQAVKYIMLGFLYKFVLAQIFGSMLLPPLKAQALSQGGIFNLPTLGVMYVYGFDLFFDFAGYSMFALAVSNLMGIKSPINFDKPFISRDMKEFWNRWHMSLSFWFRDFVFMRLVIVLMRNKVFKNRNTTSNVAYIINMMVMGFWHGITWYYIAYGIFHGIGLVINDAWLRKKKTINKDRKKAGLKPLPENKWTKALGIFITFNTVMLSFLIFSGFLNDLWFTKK
B2: Teichoic acid D-alanyltransferase (Streptococcus thermophilus (strain ATCC BAA-250 / LMG 18311)), Q5M4V4 (parent)
chain: B1 partner
partner: B1 chain

Variants of: B1
Conditions: with dltb_strt2 dltB, Q5M4V4

Variant | effect of a mutation on the interaction
S35A | decreasing interaction
V39D | decreasing interaction strength

Variants of: B1
Conditions: with dltb_strt2 dltB

Variant | effect of a mutation on the interaction
V39D | decreasing interaction
V39R | decreasing interaction

Variants of: B2
Conditions: with dltc_strt2 dltC, Q5M4V3

Variant | effect of a mutation on the interaction
V305R | decreasing interaction strength
V305D;I306D | disrupting interaction strength

Variants of: B2
Conditions: with dltc_strt2 dltC

Variant | effect of a mutation on the interaction
V305D | decreasing interaction
V305D;I306D | disrupting interaction
